Target: Pea2p-L409-ProA (pea2-M409L; S288C-encoded Pea2p variant in the Σ1278b background) (S. cerevisiae (S288C allele recreated in strain Σ1278b)) (UniProt P40091)
Experiment: co-IP; IgG pull-down with Pea2p-ProA as bait from lysates of Σ1278b cells; HA-Spa2p from a copper-inducible plasmid; lysis buffer 50 mM Tris-HCl pH 7.5, 150 mM NaCl, 2 mM EDTA, 0.5% Triton X-100; 2 hr at 4°C; Western blot (anti-HA, anti-Protein A); levels normalized against total cell lysate

Chain of HA-Spa2p (P23201 whole entry): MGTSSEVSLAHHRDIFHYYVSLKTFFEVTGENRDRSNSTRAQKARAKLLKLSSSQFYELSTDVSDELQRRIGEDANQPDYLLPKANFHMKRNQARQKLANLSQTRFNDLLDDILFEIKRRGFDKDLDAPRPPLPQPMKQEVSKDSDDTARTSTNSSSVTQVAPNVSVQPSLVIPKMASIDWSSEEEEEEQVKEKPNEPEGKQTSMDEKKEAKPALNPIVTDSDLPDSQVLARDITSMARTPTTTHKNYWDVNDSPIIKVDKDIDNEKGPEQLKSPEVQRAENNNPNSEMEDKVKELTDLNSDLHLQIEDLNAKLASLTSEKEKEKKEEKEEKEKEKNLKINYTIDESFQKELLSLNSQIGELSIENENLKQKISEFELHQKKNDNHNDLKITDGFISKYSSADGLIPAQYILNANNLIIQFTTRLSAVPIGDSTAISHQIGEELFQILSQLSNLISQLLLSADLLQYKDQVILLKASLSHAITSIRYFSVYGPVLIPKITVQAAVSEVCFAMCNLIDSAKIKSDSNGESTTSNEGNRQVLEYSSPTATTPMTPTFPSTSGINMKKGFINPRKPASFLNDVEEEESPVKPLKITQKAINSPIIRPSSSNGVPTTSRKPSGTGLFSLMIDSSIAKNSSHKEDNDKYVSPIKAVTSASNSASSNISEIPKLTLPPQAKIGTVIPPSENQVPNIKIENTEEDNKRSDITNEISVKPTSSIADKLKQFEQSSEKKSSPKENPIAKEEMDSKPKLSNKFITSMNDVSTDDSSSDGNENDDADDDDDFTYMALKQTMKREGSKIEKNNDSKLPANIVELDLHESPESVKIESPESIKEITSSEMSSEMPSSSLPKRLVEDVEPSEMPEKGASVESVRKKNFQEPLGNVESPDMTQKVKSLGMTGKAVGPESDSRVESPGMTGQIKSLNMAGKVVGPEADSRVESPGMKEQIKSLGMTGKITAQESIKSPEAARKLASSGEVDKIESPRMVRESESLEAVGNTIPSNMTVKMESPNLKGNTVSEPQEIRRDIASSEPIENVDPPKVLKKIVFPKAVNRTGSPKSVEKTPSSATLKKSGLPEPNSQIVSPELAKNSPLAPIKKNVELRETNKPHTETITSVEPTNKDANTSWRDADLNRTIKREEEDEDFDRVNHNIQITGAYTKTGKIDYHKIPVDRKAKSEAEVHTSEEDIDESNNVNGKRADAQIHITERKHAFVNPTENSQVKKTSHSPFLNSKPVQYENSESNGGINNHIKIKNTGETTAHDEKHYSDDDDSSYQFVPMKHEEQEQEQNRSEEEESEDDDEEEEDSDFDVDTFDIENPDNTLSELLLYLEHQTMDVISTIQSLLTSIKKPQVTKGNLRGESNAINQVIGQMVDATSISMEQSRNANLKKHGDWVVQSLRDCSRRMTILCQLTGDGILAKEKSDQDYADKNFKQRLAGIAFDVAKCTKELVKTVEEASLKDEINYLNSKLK
Chain of UniProt P40091 (P40091 whole entry, stated change not applied): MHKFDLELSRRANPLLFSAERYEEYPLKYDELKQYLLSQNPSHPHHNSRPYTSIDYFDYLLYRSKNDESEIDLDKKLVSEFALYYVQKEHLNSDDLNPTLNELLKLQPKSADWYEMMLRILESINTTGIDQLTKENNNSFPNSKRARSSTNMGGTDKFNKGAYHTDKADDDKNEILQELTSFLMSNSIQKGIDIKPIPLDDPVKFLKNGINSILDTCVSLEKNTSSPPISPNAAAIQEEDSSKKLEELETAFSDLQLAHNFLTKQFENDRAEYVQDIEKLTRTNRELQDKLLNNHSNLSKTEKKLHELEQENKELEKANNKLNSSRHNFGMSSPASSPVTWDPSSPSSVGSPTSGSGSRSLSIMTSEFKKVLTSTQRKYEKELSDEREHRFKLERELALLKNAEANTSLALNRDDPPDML

Which amount of Spa2p recovered relative to Pea2p-M409 does the source give for “HA-Spa2p (from UniProt P23201 1-1466) (natural protein)” here?
Its amount of Spa2p recovered relative to Pea2p-M409 is 60%.

From publication PMC4140661
